The labels stand for the following.
B1: Gamma-crystallin D, P07320 (parent)
chain: MGKITLYEDRGFQGRHYECSSDHPNLQPYLSRCNSARVDSGCWMLYEQPNYSGLQYFLRRGDYADHQQWMGLSDSVRSCRLIPHSGSHRIRLYEREDYRGQMIEFTEDCSCLQDRFRFNEIHSLNVLEGSWVLYELSNYRGRQYLLMPGDYRRYQDWGATNARVGSLRRVIDFS

In this data set the parent is B1. The following applies: Homo sapiens; pH 7; 37 °C; GdnHCl; Fluorescence; Sodium phosphate 10 mM; transition: 3; structure 1HK0; whole UniProt chain shown.

The results in this text go back to FireProtDB (doi:10.1110/ps.041111405).

Where “and” joins values, the source holds several entries; their conditions need not be identical. Identical values can stand only once.

Turning to V132A, the “ddG of mutation (higher = less stable)” value is 2.7 kcal/mol and 1.1 kcal/mol; the denaturant m value is 3.7 kcal/mol/M and 3.1 kcal/mol/M; the “denaturant midpoint (higher = more stable)” value (shortened to “denaturant midpoint”) was 1.3 M and 2.5 M; the unfolding free energy was 5 kcal/mol and 7.8 kcal/mol.
Regarding M44A, the denaturant m value was 3.7 kcal/mol/M and 2.8 kcal/mol/M; the “denaturant midpoint” value is 2.2 M and 2.9 M; the unfolding free energy is 7.7 kcal/mol and 8.1 kcal/mol.
L145A: the “ddG of mutation (higher = less stable)” value was 1.2 kcal/mol and 1.4 kcal/mol; the denaturant m value is 3.9 kcal/mol/M and 2.9 kcal/mol/M; the “denaturant midpoint” value is 1.6 M and 2.6 M; the unfolding free energy was 6.5 kcal/mol and 7.5 kcal/mol.
With I82A, the denaturant m value was 3.7 kcal/mol/M and 3 kcal/mol/M; the “denaturant midpoint” value is 1.5 M and 2.9 M; the unfolding free energy is 5.3 kcal/mol and 8.7 kcal/mol.
Regarding F57A, the denaturant m value is 3.9 kcal/mol/M and 3.2 kcal/mol/M; the “denaturant midpoint” value was 1.6 M and 2.9 M; the unfolding free energy is 6.1 kcal/mol and 9.3 kcal/mol.
On to V170A, for which the “ddG of mutation (higher = less stable)” value is -1.3 kcal/mol, the denaturant m value was 4 kcal/mol/M, the “denaturant midpoint” value was found to be 2.5 M and the unfolding free energy is 10.2 kcal/mol.
